Experimental findings from publication PMC2631452, “Redox biology of Mycobacterium tuberculosis H37Rv: protein-protein interaction between GlgB and WhiB1 involves exchange of thiol-disulfide” (BMC Biochemistry, 2009) are described below.

In this test the target is T1, purified, oxidized GlgB pre-alkylated with iodoacetamide (Mycobacterium tuberculosis H37Rv, UniProt P9WN45 1-731, free cysteines C95 and C658 alkylated with iodoacetamide; C193 and C617 in an intra-molecular disulfide bond (oxidized)).
T1 construct: GlgB (Rv1326c), Mycobacterium tuberculosis; recombinant, about 85 kDa on SDS-PAGE; also called pre-alkylated oxidized GlgB; pre-alkylated GlgB
T1 sequence: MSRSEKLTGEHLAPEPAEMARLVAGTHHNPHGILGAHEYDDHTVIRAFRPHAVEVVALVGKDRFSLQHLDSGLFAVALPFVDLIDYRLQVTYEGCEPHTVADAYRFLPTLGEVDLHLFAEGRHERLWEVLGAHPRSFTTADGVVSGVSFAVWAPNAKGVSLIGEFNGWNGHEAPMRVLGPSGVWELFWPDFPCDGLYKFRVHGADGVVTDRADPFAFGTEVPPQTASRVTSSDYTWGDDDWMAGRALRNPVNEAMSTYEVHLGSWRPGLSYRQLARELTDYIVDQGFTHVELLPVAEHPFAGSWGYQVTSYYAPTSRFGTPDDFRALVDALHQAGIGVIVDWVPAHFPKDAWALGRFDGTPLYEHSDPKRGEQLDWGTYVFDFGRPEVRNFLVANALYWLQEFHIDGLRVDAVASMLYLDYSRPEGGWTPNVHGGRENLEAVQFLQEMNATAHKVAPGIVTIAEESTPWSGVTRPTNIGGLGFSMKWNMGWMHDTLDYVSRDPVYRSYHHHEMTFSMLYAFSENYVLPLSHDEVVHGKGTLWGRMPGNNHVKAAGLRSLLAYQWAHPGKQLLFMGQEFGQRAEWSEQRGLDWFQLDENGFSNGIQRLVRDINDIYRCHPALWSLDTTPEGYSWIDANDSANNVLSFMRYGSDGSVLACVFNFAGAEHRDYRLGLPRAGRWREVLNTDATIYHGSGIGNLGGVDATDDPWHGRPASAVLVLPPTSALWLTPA
The test is described as follows: […]; 50 mM Tris.HCl pH 8.0, 100 mM NaCl, 0.05% Triton X-100, 2 mM EDTA, 10 mM MgCl2, 25°C; […]. The note with it: both partners purified.

B1: WhiB1C40S (natural protein)
chain: MDWRHKAVCRDEDPELFFPVGNSGPALAQIADAKLVCNRSPVTTECLSWALNTGQDSGVWGGMSEDERRALKRRNARTKARTGV
notes: also called C40S mutant of WhiB1
In the case of B1, the binding result was “binds”.
